# Test results from patent US20170066831A1 (Janssen / Centocor, published 2017).
# T1: HH-ST2L (human ST2L Domains I and II), wild type (human, UniProt Q01638 19-205)
# T1 construct: also called ST2L-D1D2
# T1 sequence: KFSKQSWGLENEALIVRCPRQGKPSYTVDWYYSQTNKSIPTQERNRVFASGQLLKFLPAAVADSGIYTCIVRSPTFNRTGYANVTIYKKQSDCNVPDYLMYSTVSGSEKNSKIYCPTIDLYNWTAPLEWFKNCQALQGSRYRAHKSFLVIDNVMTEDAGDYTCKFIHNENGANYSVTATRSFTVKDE
# T2: HH-ST2L variant 93NL94 (substitution 93TF94 to 93NL94) (human, UniProt Q01638 19-205)
# T2 chain: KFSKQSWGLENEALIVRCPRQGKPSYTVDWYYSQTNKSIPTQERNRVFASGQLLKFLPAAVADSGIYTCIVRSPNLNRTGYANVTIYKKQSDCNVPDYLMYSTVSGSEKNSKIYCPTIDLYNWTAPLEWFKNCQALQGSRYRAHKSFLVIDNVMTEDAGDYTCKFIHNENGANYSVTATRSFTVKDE
# T3: human ST2L extracellular domain with C-terminal His6 tag (human, UniProt Q01638 19-328)
# T3 construct: also called huST2L-ECD; ST2L-ECD
# T3 sequence: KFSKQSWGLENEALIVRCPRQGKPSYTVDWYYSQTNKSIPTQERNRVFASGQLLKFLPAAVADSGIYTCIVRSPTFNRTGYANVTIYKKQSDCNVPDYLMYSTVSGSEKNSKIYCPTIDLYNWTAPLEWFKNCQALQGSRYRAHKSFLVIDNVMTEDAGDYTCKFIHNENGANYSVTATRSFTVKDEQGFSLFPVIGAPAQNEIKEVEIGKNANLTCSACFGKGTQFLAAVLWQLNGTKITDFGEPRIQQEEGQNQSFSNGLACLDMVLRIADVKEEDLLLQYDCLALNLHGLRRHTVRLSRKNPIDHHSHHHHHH
# Columns and labels:
# [1] = target: T1, HH-ST2L (human ST2L Domains I and II), …; test: ProteOn SPR, mAb captured by anti-Fc, ST2L-D1D2 injected
# Protocol: (§1) Binding studies were performed using the ProteOn XPR36 Protein Interaction Array system (Bio-Rad) (Bravman T, et al. Anal Biochem 358:281-288, 2006). […] Individual anti-ST2L mAb was then captured by flowing (1 μg/mL) antibody solution prepared in PBS containing 0.5% Nonidet P-40 and 0.5% Na-deoxycholate). The signal in the surfaces reached ˜250 resonance units (RU, 1 RU=1 pg protein/mm²) in the anti-Fc-coated surfaces, confirming that these antibodies specifically capture anti-ST2L mAbs. After 90° rotation of the fluid system, wild type of ST2L-D1D2 or variant proteins (0.5 mg/mL in PBS containing 0.5% Nonidet P-40 and 0.5% Na-deoxycholate) was injected in the parallel flow channels. All of these assays were performed at 25° C. The ST2L-D1D2-dependent signals on the surfaces were obtained by double referencing, subtracting the response observed on surfaces immobilizing the antibodies alone, and the signal observed injecting the vehicle alone (which allows correction for binding-independent responses). The resulting sensorgrams were fitted by the simplest 1:1 interaction model (ProteOn analysis software), to obtain the corresponding association and dissociation rate constants (kₐ and kd).
# (§2) Residue numbering is according to full length human ST2L of SEQ ID NO: 1.
# [2] = target: T2, HH-ST2L variant 93NL94 (substitution …); test: ProteOn SPR, mAb captured by anti-Fc, ST2L-D1D2 variant injected
# Protocol: as §1, §2
# [3] = target: T3, human ST2L extracellular domain with …; test: RLB ELISA: biotinylated IL-33 on coated huST2L-ECD, antibody titrated
# Method in brief: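 Plates coated 16 h at 4 °C with His6-tagged ST2L-ECD (human aa 19-328, 4 μg/ml; cyno aa 19-321, 2 μg/ml). Titrated mAbs applied 1 h at RT, then biotinylated IL-33 added 30 min (human 112-270 at 100 ng/ml final; cyno 112-269 at 200 ng/ml final). Bound ligand detected with streptavidin-HRP/TMB, OD450.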
binder,measurement,setting,value
"STLM208 (antibody, V domains shown, frameworks VH3-23 / Vk-L6) VH: EVQLLESGGGLVQPGGSLRLSCAASGFTFSIYDMIWVRQAPGKGLEWVSSIRGEGGGTYYADSVKGRFTISRDNSKNTLYLQMNSLRAEDTAVYYCARDPWSTEGSFFVLDYWGQGTLVTVSS VL: EIVLTQSPATLSLSPGERATLSCRASQSVDDDLAWYQQKPGQAPRLLIYDASNRATGIPARFSGSGSGTDFTLTISSLEPEDFAVYYCQQYITAPLTFGQGTKVEIK",Kd,[1],~0.0108 nM
same,Kd,[2],~0.0495 nM
same,fold reduction of binding affinity against wild type ST2L-D1D2,[2],~5 fold
same,IC50,[3],0.47 µg/mL
